Where a chain is given by its changes, count along the chain named. Names may count otherwise. Read-outs that look alike come from different tables or passages of the source. Each block holds one binder with its values, some of them ahead of it.
Key:
[1] = biological target: T1, mature myostatin (recombinant, dimeric) (mouse polyprotein used for in-house …, UniProt O08689 268-376); assay: BIAcore, high density myostatin surface, antibody analyte, 1:1 model (poor fits)
T1 construct: also called GDF-8; recombinant myostatin
T1 sequence: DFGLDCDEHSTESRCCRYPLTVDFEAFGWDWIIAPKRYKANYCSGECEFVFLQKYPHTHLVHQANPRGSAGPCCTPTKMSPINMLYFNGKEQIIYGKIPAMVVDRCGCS
Protocol: (§1) Purified H0L0, H1L2 and H2L2 bound recombinant myostatin by BIAcore™ Recombinant myostatin was immobilised at three different densities (low, medium and high, to give R-max values of approximately 35, 120 and 350 RU's respectively) onto a BIAcore™ chip. Antibodies were passed over at 256, 64, 16, 4 and 1 nM. 0 nM antibody was used for double referencing and data was fitted to the 1:1 model.

[2] = biological target: T1, mature myostatin (recombinant, dimeric); assay: cell-based or functional assay
[3] = biological target: T1, mature myostatin (recombinant, dimeric); assay: ELISA: inhibition of 2 nM biotinylated myostatin binding to plate-coated ActRIIb, mean IC50
Protocol: Recombinant soluble ActRIIb (R&D Systems 339-RBB) was coated in wells of an ELISA plate at 1 μg/ml in carbonate buffer overnight at 4° C. Plates were blocked (see Block solution above at 2.3) and washed following standard ELISA protocols. In parallel, 2 nM biotinylated myostatin (in-house, as described in 1.1, biotinylated material) was pre-incubated with an antibody dilution series consisting of 10B3, 10B3C, and a negative control (IgG1 isotype control) for 2 hours at 37° C. The biotinylated myostatin:antibody reactions were then added to the ActRIIb coated plate for 1 hour at 37° C. Standard wash procedures were followed prior to addition of 1:1000 diluted streptavidin-HRP conjugate (Dako P0397) and a further 37° C. incubation for 1 hour. Plates were again washed and assayed at absorbance 490 nm following OPD substrate (Sigma) and acid stop solution treatment Inhibition curves and IC50 values for the inhibition of myostatin activity are shown in FIG. 5 and Table 8 respectively.

[4] = biological target: T1, mature myostatin (recombinant, dimeric); assay: cell-based or functional assay; remark: listed apart in the source
[5] = biological target: T1, mature myostatin (recombinant, dimeric); assay: cell-based or functional assay; remark: listed apart in the source
[6] = biological target: T1, mature myostatin (recombinant, dimeric); assay: myostatin binding ELISA with purified antibody (made in CHOE1a), 10 ng/well recombinant myostatin coated, anti-human kappa HRP, A490 (Examples 4.1, 4.2)
Protocol: The myostatin binding ELISA was carried out approximately according to this protocol. A 96-well ELISA plate was coated at 4° C. overnight with 10 ng/well recombinant myostatin. This plate was then washed 3-times in wash buffer (PBS, 0.1% Tween-20). The wells were blocked for 1 hour at room temperature with block solution (PBS, 0.1% Tween-20+1% bovine serum albumin [BSA]), before washing 3-times in wash buffer. Antibodies were then titrated out to a suitable concentration range (approximately 100 to 0.001 μg/ml), added to the plate and incubated for 1 hour at room temperature. The plate was then washed 3-times in wash buffer. An anti-mouse IgG HRP-conjugated antibody (P0260 by Dako, this reagent was used according to the manufacturer's instructions) was used to detect binding of mouse antibodies, such as 10B3. An anti-human kappa light chain HRP-conjugated antibody (A7164 by Sigma Aldridge, this reagent was used according to the manufacturer's instructions) was used to detect binding of humanized or chimeric antibodies, such as 10B3 chimera or H0L0. The plate was then washed 3-times in wash buffer and developed with an OPD substrate (from Sigma, used according to the manufacturer's instructions) and read at 490 nm on a plate reader.

[7] = biological target: T1, mature myostatin (recombinant, dimeric); assay: BIAcore, low density myostatin surface, antibody analyte, 1:1 model
Protocol: as §1

[8] = biological target: T1, mature myostatin (recombinant, dimeric); assay: ELISA, plate-coated myostatin (R&D Systems), mean EC50
Protocol: 10B3 and 10B3 chimera (10B3C) bound myostatin (R&D Systems, 788-G8-010/CF) in a sandwich ELISA. Plates were coated with myostatin at 10 ng/well and blocked with Block solution (PBS, 0.1% TWEEN and 1% BSA). Following washing (PBS, 0.1% TWEEN), antibody was incubated at 37° C. for 2 hours over a dilution series and plates washed again prior to incubation at 37° C. for 1 hour with anti-mouse HRP or anti-human HRP (Dako, P0161 & Sigma, A-8400, respectively). Plates were again washed and OPD substrate (Sigma, P9187) added until colourometric reaction occurred and the reaction stopped by the addition of H₂SO₄.

[9] = biological target: T1, mature myostatin (recombinant, dimeric); assay: cell-based or functional assay; remark: listed apart in the source
[10] = biological target: T1, mature myostatin (recombinant, dimeric); assay: BIAcore T100, antibody captured on protein A (C1 chip), myostatin analyte, all curves 1:1 model
Protocol: (§2) The affinity of 10B3 mouse parental and 10B3C for recombinant myostatin was assessed by BIAcore™ (surface plasmon resonance) analysis. Analysis was carried out by the use of a capture surface: anti-mouse IgG was coupled to a C1 chip by primary amine coupling for 10B3 mouse parental; and a protein A surface was created on a C1 chip by primary amine coupling for 10B3 chimera.
(§3) After capture, recombinant myostatin was passed over the surface at 64 nM, 16 nM, 4 nM, 1 nM, 0.25 nM and 0.0625 nM, with a buffer injection (i.e. 0 nM) used for double referencing. There was a regeneration step between each analyte injection, after which the new antibody capture event occurred before the next injection of myostatin. The data was analysed using both the 1:1 model and the Bivalent model inherent to the T100 machines analysis software (see Table 6). Both capture surfaces could be regenerated using 100 mM phosphoric acid, the work was carried out using HBS-EP as the running buffer and using 25° C. as the analysis temperature.

[11] = biological target: T1, mature myostatin (recombinant, dimeric); assay: BIAcore T100, antibody captured on protein A (C1 chip), myostatin analyte, all curves Bivalent model
Protocol: as §2, §3

[12] = biological target: T1, mature myostatin (recombinant, dimeric); assay: cell-based or functional assay; remark: listed apart in the source
[13] = biological target: T1, mature myostatin (recombinant, dimeric); assay: BIAcore, low density myostatin surface, methods as in 4.3
[14] = biological target: T1, mature myostatin (recombinant, dimeric); assay: BIAcore, medium density myostatin surface, antibody analyte, 1:1 model (poor fits)
Protocol: as §1

[15] = biological target: T1, mature myostatin (recombinant, dimeric); assay: ProteOn XPR36, antibody captured from supernatant, myostatin analyte
Protocol: The initial kinetic analyses for the CDRH3 screen were carried out on the ProteOn XPR36 (Biorad Laboratories). For residues R95 to P100_B, analysis was carried out using a Protein A/G capture surface (Pierce 21186) was used and for residues A100_C to V102, an anti-human IgG surface was used (Biacore/GE Healthcare BR-1008-39). Both capture surfaces were prepared similarly using primary amine coupling to immobilise the capture molecule on a GLM chip (Biorad Laboratories 176-5012). CDRH3 variants were captured directly on either the Protein A/G or anti-human IgG surface (depending on the residue mutated) from tissue culture supernatants from transient transfections expressing the particular variant of interest. After capture, in-house recombinant human myostatin (see 1.1 above) was used as an analyte at 256 nM, 32 nM, 4 nM, 0.5 nM and 0.0625 nM, with a buffer injection alone (i.e. 0 nM) used to double reference the binding curves. Following the myostatin binding event, the capture surfaces were regenerated: for the Protein A/G capture surface, 100 mM phosphoric acid was used to regenerate the capture surface; and for the anti-human IgG surface, 3M MgCl₂ was used to regenerate the capture surface; the regeneration removed the previously captured antibody ready for another cycle of capture and binding analysis. […]

[16] = biological target: T1, mature myostatin (recombinant, dimeric); assay: BIAcore, low density myostatin surface
[17] = biological target: T1, mature myostatin (recombinant, dimeric); assay: myostatin binding ELISA after 48 h at 37 C in PBS (Examples 5.2, 4.2), A490

Kd [1]: 0.882 nM | koff [1]: 0.000218 s⁻¹ | kon [1]: 248000 M⁻¹ s⁻¹ | Mean IC50, A204 in vitro activity assay (5 nM myostatin) [2]: 3.53 nM | IC50 [3]: 0.138 µg/mL | Mean IC50, A204 in vitro activity assay [4]: 3.57 nM | Mean IC50, A204 in vitro activity assay [5]: 5.1 nM | EC50 (read off the curve) [6]: ~0.1 µg/mL | Kd [7]: 1.61 nM | koff [7]: 0.000967 s⁻¹ | kon [7]: 599000 M⁻¹ s⁻¹ | EC50 [8]: 0.049 µg/mL | Mean IC50, myostatin responsive reporter gene assay (A204 cells, luciferase) [9]: 6.2 nM | Kd [10]: 0.088 nM | Kd [11]: 3.6 nM | Mean IC50, A204 in vitro activity assay [12]: 8.45 nM | Kd [13]: 4.44 nM | Kd [14]: 1.35 nM | koff [14]: 0.000559 s⁻¹ | kon [14]: 413000 M⁻¹ s⁻¹
B1: 10B3 chimera (antibody, human IgG1, kappa, V domains shown)
VH: EVQLQQSGPELVKPGASVKISCKASGYSFTGYFMHWVKQSHGNILDWIGNIYPYNGVSNYNQRFKAKATLTVDKSSSTAYMELRSLTSEDSAVYYCARRYYYGTGPADWYFDVWGTGTLVTVSS
VL: DIKMTQSPSSMYASLRERVTITCKASQDINSYLSWFQQKPGKSPKTLIYRANRLVDGVPSRFSGSGSGQDYSLTISSLEYEDMGIYYCLQCDEFPLTFGAGTKLELKR
notes: Mouse variable regions on human IgG1/kappa wild type constant regions; also called HCLC; HcLc

binding result [15]: binds
B2: CDRH3 variant F100G_S of H2L2-C91S (antibody, human IgG1, kappa, V domains shown)
VH: QVQLVQSGAEVKKPGASVKVSCKASGYSFTGYFMHWVRQAPGQGLEWMGNIYPYNGVSNYNQRFKARVTMTTDTSTSTAYMELRSLRSDDTAVYYCARRYYYGTGPADWYSDVWGQGTLVTVSS
VL: DIQMTQSPSSLSASVGDRVTITCKASQDINSYLSWFQQKPGKAPKSLIYRANRLVDGVPSKFSGSGSGTDYTLTISSLQPEDFATYYCLQSDEFPLTFGQGTKLEIKR
notes: tested only in the supernatant screen

fold loss in affinity against H2L2 [16]: ≥ 2 fold | Mean IC50, A204 in vitro activity assay [12]: 12 nM | Kd [13]: 28 nM | EC50 (read off the curve) [17]: ~1 nM
B3: H2L2 N54Q (H2L2-N54Q) (antibody, human IgG1, kappa, V domains shown)
VH: B2 VH with N55Q, S111F
VL: B2 VL with S91C
